Reference: patent US20250066759

Test system: Bs-CspB-100V80 fusion (ssRNA purification reagent, Isotag) (Bacillus subtilis)
Settings: percent of spiked dsRNA eluted; greater than 4-log dsRNA removal; dsRNA ELISA

“dsRNA matching the sequence and size of the eGFP ssRNA” was tested, and the binding was < 4%.
